± gives the standard error. Variants at the floor of the assay were thinned out. Where only a bound is given, the exact number is not on record here.

Sequences and labels used below:
B1: glmS ribozyme (parent)
chain: AUAAAAGCGCCAGAACUACAGAAAUGUAGUUGACGAGGAGGAGGUUUAUCGAAUUUUCGGCGGAUGCCUCCAAA

Common to all, as to conditions: with glucosamine-6-phosphate
Series [1] covers variants of B1. In words: self-cleavage kobs at 640 uM GlcN6P; higher = faster cleavage; RNA array. In outline:
(§1)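 kobs was derived by fitting per-tile medians to one- or two-exponential decays after normalising signals to baseline and to non-cleaving reference variants. Those signals came from barcoded ribozyme variants transcribed in situ by E. coli RNA polymerase on sequenced MiSeq chips, followed through a hybridised Cy3 probe at 37 °C and imaged over ~14 h. Glucosamine-6-phosphate (40 μM to 10 mM) in HEPES/KCl/Mg(OAc)2 buffer was flowed in. Weighted Michaelis–Menten fits across concentrations then gave kcat and KM.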

The variants in series [2] derive from B1. In words: self-cleavage kobs at 2500 uM GlcN6P; higher = faster cleavage; RNA array. In outline:
as §1

In series [3] the parent is B1. Put plainly: self-cleavage kobs at 10000 uM GlcN6P; higher = faster cleavage; RNA array. In outline:
as §1

Take U30C G37U G44C C58U C67U: in the series with glucosamine-6-phosphate [1], the “self-cleavage kobs at 640 uM GlcN6P” value was under 1e-05 s⁻¹.
For the variant C11U G29U U54A, in the series with glucosamine-6-phosphate [1], the “self-cleavage kobs at 640 uM GlcN6P” value came out at 0.000113 ± 2.1e-05 s⁻¹. In addition, in the series with glucosamine-6-phosphate [2], the “self-cleavage kobs at 2500 uM GlcN6P” value came to 0.000171 ± 4.4e-05 s⁻¹. Further, the “self-cleavage kobs at 10000 uM GlcN6P” value with glucosamine-6-phosphate [3] is 0.000577 ± 0.00014 s⁻¹.
Turning to C8A U57G, the “self-cleavage kobs at 640 uM GlcN6P” value in the series with glucosamine-6-phosphate [1] is under 1e-05 s⁻¹. Also, in the series with glucosamine-6-phosphate [2], the “self-cleavage kobs at 2500 uM GlcN6P” value was under 1e-05 s⁻¹.
In the case of A6U G9C C16G C71U, the “self-cleavage kobs at 640 uM GlcN6P” value with glucosamine-6-phosphate [1] is under 1e-05 s⁻¹.
For A33C A48C, the “self-cleavage kobs at 640 uM GlcN6P” value with glucosamine-6-phosphate [1] was under 1e-05 s⁻¹. Besides, in the series with glucosamine-6-phosphate [2], the “self-cleavage kobs at 2500 uM GlcN6P” value was under 1e-05 s⁻¹.
Consider C11A A39G, for which the “self-cleavage kobs at 640 uM GlcN6P” value with glucosamine-6-phosphate [1] came out at 0.000101 ± 2.7e-05 s⁻¹. The “self-cleavage kobs at 2500 uM GlcN6P” value in the series with glucosamine-6-phosphate [2] came to 0.000121 ± 2.7e-05 s⁻¹. In addition, in the series with glucosamine-6-phosphate [3], the “self-cleavage kobs at 10000 uM GlcN6P” value amounted to 0.000422 ± 7.8e-05 s⁻¹.
As for C11U U47A A48C C61A C70U C71A, the “self-cleavage kobs at 640 uM GlcN6P” value with glucosamine-6-phosphate [1] was under 1e-05 s⁻¹. Further, the “self-cleavage kobs at 2500 uM GlcN6P” value in the series with glucosamine-6-phosphate [2] was under 1e-05 s⁻¹.
Turning to G40C G66A C70A, the “self-cleavage kobs at 640 uM GlcN6P” value with glucosamine-6-phosphate [1] stood at 9.02e-05 ± 2.4e-05 s⁻¹. Besides, in the series with glucosamine-6-phosphate [2], the “self-cleavage kobs at 2500 uM GlcN6P” value turned out to be 0.000246 ± 6.6e-05 s⁻¹. Moreover, the “self-cleavage kobs at 10000 uM GlcN6P” value in the series with glucosamine-6-phosphate [3] came to 0.000559 ± 0.0001 s⁻¹.
The corresponding values for U31A A39C C50G C71A are under 1e-05 s⁻¹, under 1e-05 s⁻¹ and under 1e-05 s⁻¹.
U46C U69G: the “self-cleavage kobs at 640 uM GlcN6P” value with glucosamine-6-phosphate [1] was 8.03e-05 ± 1.7e-05 s⁻¹. In addition, the “self-cleavage kobs at 2500 uM GlcN6P” value in the series with glucosamine-6-phosphate [2] was 0.000153 ± 2.7e-05 s⁻¹.
For G29A A33G U69A the same measures were 5.13e-05 ± 2.3e-05 s⁻¹ and 4.9e-05 ± 1.9e-05 s⁻¹.
In the case of G9U U49G A52C A64C, the “self-cleavage kobs at 640 uM GlcN6P” value in the series with glucosamine-6-phosphate [1] was under 1e-05 s⁻¹.
Turning to A12G A15C G40U, the “self-cleavage kobs at 640 uM GlcN6P” value with glucosamine-6-phosphate [1] is under 1e-05 s⁻¹.
On the same count and under the same terms, under G7C C11U G59U C61U stands under 1e-05 s⁻¹; under C10A A15G G32U C70G, 0.000197 ± 7.6e-05 s⁻¹.
For G35U U57A, the “self-cleavage kobs at 640 uM GlcN6P” value with glucosamine-6-phosphate [1] was under 1e-05 s⁻¹. Moreover, the “self-cleavage kobs at 10000 uM GlcN6P” value with glucosamine-6-phosphate [3] is under 1e-05 s⁻¹.
Consider U54G G66C, for which the “self-cleavage kobs at 640 uM GlcN6P” value with glucosamine-6-phosphate [1] amounted to 0.000405 ± 6.3e-05 s⁻¹. Moreover, the “self-cleavage kobs at 10000 uM GlcN6P” value with glucosamine-6-phosphate [3] was determined as 0.00079 ± 0.00012 s⁻¹.
For G9C C10G A14G G41U A64C, the “self-cleavage kobs at 640 uM GlcN6P” value with glucosamine-6-phosphate [1] is under 1e-05 s⁻¹. For the same variant, the “self-cleavage kobs at 2500 uM GlcN6P” value with glucosamine-6-phosphate [2] was under 1e-05 s⁻¹.
On to G9A G32C C61U, for which the “self-cleavage kobs at 640 uM GlcN6P” value with glucosamine-6-phosphate [1] is under 1e-05 s⁻¹. Besides, the “self-cleavage kobs at 10000 uM GlcN6P” value in the series with glucosamine-6-phosphate [3] was under 1e-05 s⁻¹.
In the case of G32C G41A U46G C71U, the “self-cleavage kobs at 640 uM GlcN6P” value in the series with glucosamine-6-phosphate [1] was under 1e-05 s⁻¹. For the same variant, the “self-cleavage kobs at 2500 uM GlcN6P” value in the series with glucosamine-6-phosphate [2] is under 1e-05 s⁻¹.
For C10U U45C C68A, the “self-cleavage kobs at 640 uM GlcN6P” value with glucosamine-6-phosphate [1] was under 1e-05 s⁻¹.
Turning to C16A U54C G59U, the “self-cleavage kobs at 640 uM GlcN6P” value with glucosamine-6-phosphate [1] is under 1e-05 s⁻¹.
On to A12G U57A G60U, for which the “self-cleavage kobs at 640 uM GlcN6P” value in the series with glucosamine-6-phosphate [1] is under 1e-05 s⁻¹. The “self-cleavage kobs at 2500 uM GlcN6P” value in the series with glucosamine-6-phosphate [2] was under 1e-05 s⁻¹. Moreover, in the series with glucosamine-6-phosphate [3], the “self-cleavage kobs at 10000 uM GlcN6P” value was under 1e-05 s⁻¹.
Turning to A36C G41U A64C, the “self-cleavage kobs at 640 uM GlcN6P” value with glucosamine-6-phosphate [1] was under 1e-05 s⁻¹. Also, in the series with glucosamine-6-phosphate [2], the “self-cleavage kobs at 2500 uM GlcN6P” value was under 1e-05 s⁻¹.
For G43A A48G A53U G62C, the “self-cleavage kobs at 640 uM GlcN6P” value in the series with glucosamine-6-phosphate [1] was under 1e-05 s⁻¹.
Turning to G13U A15U C70U, the “self-cleavage kobs at 640 uM GlcN6P” value with glucosamine-6-phosphate [1] is 3.4e-05 ± 9.4e-06 s⁻¹. Also, the “self-cleavage kobs at 2500 uM GlcN6P” value with glucosamine-6-phosphate [2] stood at 7.46e-05 ± 2.2e-05 s⁻¹. The “self-cleavage kobs at 10000 uM GlcN6P” value in the series with glucosamine-6-phosphate [3] is 5.88e-05 ± 1.3e-05 s⁻¹.
On to C16G G29A G40A A42C, for which the “self-cleavage kobs at 640 uM GlcN6P” value in the series with glucosamine-6-phosphate [1] is under 1e-05 s⁻¹. Besides, the “self-cleavage kobs at 2500 uM GlcN6P” value in the series with glucosamine-6-phosphate [2] is under 1e-05 s⁻¹.
Take A14U A36G G40A G41A U54A U57A C71U: the “self-cleavage kobs at 640 uM GlcN6P” value with glucosamine-6-phosphate [1] is under 1e-05 s⁻¹.
On the same count and under the same terms, under C16U G60U C68A stands under 1e-05 s⁻¹.
Still for that read-out and setting: under C16A G38U U47A stands under 1e-05 s⁻¹.

These data come from the supplement of paper PMC7125110.
